Reference: patent US20150374794A1 (Novo Nordisk, published 2015)
Numbered stars: 1 amine (or outer) side, 2 acyl side, 3 side chain; on linkers, the order of the positions; unused ones are H or OH. Square brackets hold non-standard residues; d marks the D form. Side chains are listed from the residue outwards. Ends that are not written are not given here. * marks the point of attachment. C18 diacid = O=C(O)CCCCCCCCCCCCCCCCC(=O)*; γGlu = O=C(O)[C@H](CCC(=O)[*:2])N[*:1]; AEEA = NCCOCCOCC(=O)O; Aib = CC(C)(N)C(=O)O

What was measured:
[1] = target: T1, human GLP-1 receptor (human, UniProt P43220 24-463); assay: cell-based or functional assay
[2] = target: human glucagon receptor (human, UniProt P47871 26-477); assay: cell-based or functional assay
[3] = target: T1, human GLP-1 receptor; assay: displacement of 125I-GLP-1(7-36)NH2, membranes with human GLP-1R, SPA
Experimental: The receptor binding of each compound to the human GLP-1 receptor was measured in a displacement binding assay. […] Each derivative was added in a series of concentrations to isolated membranes containing the human GLP-1 receptor and displacement of the labelled ligand was monitored. The receptor binding was reported as the concentration at which half of the labelled ligand was displaced from the receptor, the IC₅₀ value.

Chain of human glucagon receptor (P47871 26-477): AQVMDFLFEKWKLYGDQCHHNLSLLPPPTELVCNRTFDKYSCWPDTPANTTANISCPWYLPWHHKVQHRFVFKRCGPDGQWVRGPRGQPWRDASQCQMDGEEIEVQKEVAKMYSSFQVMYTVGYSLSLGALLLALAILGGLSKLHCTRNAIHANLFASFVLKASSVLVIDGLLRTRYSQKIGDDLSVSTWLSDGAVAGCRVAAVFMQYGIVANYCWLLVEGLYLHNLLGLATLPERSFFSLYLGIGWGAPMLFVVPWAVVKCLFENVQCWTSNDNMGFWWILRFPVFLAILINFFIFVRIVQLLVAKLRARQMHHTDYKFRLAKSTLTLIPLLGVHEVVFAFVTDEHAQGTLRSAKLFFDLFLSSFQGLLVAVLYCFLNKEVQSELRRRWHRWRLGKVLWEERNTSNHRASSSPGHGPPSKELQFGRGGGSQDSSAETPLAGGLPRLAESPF

Binder	EC50 GLP-1R, CRE luciferase reporter gene assay in BHK cells [1] [nM]	EC50 GlucR, CRE luciferase reporter gene assay in BHK cells [2] [nM]	IC50 [3] [nM]
H[Aib]QGTFTSDLSKYLDSRRARDFVQWLLK([γGlu-γGlu-AEEA-AEEA-γGlu-C18 diacid])T-NH2 (N-terminus assumed; SMILES CC(C)C[C@H](NC(=O)[C@H](Cc1ccc(O)cc1)NC(=O)[C@H](CCCCN)NC(=O)[C@H](CO)NC(=O)[C@H](CC(C)C)NC(=O)[C@H](CC(=O)O)NC(=O)[C@H](CO)NC(=O)[C@@H](NC(=O)[C@H](Cc1ccccc1)NC(=O)[C@@H](NC(=O)CNC(=O)[C@H](CCC(N)=O)NC(=O)C(C)(C)NC(=O)[C@@H](N)Cc1c[nH]cn1)[C@@H](C)O)[C@@H](C)O)C(=O)N[C@@H](CC(=O)O)C(=O)N[C@@H](CO)C(=O)N[C@@H](CCCNC(=N)N)C(=O)N[C@@H](CCCNC(=N)N)C(=O)N[C@@H](C)C(=O)N[C@@H](CCCNC(=N)N)C(=O)N[C@@H](CC(=O)O)C(=O)N[C@@H](Cc1ccccc1)C(=O)N[C@H](C(=O)N[C@@H](CCC(N)=O)C(=O)N[C@@H](Cc1c[nH]c2ccccc12)C(=O)N[C@@H](CC(C)C)C(=O)N[C@@H](CC(C)C)C(=O)N[C@@H](CCCCNC(=O)CC[C@H](NC(=O)CC[C@H](NC(=O)COCCOCCNC(=O)COCCOCCNC(=O)CC[C@H](NC(=O)CCCCCCCCCCCCCCCCC(=O)O)C(=O)O)C(=O)O)C(=O)O)C(=O)N[C@H](C(N)=O)[C@@H](C)O)C(C)C)	0.004	0.016	
H[Aib]QGTFTSDLSKYLDSRRARDFVK([γGlu-γGlu-AEEA-AEEA-γGlu-C18 diacid])WLLST-NH2 (N-terminus assumed; SMILES CC(C)C[C@H](NC(=O)[C@H](Cc1ccc(O)cc1)NC(=O)[C@H](CCCCN)NC(=O)[C@H](CO)NC(=O)[C@H](CC(C)C)NC(=O)[C@H](CC(=O)O)NC(=O)[C@H](CO)NC(=O)[C@@H](NC(=O)[C@H](Cc1ccccc1)NC(=O)[C@@H](NC(=O)CNC(=O)[C@H](CCC(N)=O)NC(=O)C(C)(C)NC(=O)[C@@H](N)Cc1c[nH]cn1)[C@@H](C)O)[C@@H](C)O)C(=O)N[C@@H](CC(=O)O)C(=O)N[C@@H](CO)C(=O)N[C@@H](CCCNC(=N)N)C(=O)N[C@@H](CCCNC(=N)N)C(=O)N[C@@H](C)C(=O)N[C@@H](CCCNC(=N)N)C(=O)N[C@@H](CC(=O)O)C(=O)N[C@@H](Cc1ccccc1)C(=O)N[C@H](C(=O)N[C@@H](CCCCNC(=O)CC[C@H](NC(=O)CC[C@H](NC(=O)COCCOCCNC(=O)COCCOCCNC(=O)CC[C@H](NC(=O)CCCCCCCCCCCCCCCCC(=O)O)C(=O)O)C(=O)O)C(=O)O)C(=O)N[C@@H](Cc1c[nH]c2ccccc12)C(=O)N[C@@H](CC(C)C)C(=O)N[C@@H](CC(C)C)C(=O)N[C@@H](CO)C(=O)N[C@H](C(N)=O)[C@@H](C)O)C(C)C)	0.006	0.06	
H[Aib]HGTFTSDLSKYLESRRAREFVQWLLK([γGlu-AEEA-AEEA-γGlu-γGlu-C18 diacid])T-NH2 (N-terminus assumed; SMILES CC(C)C[C@H](NC(=O)[C@H](Cc1ccc(O)cc1)NC(=O)[C@H](CCCCN)NC(=O)[C@H](CO)NC(=O)[C@H](CC(C)C)NC(=O)[C@H](CC(=O)O)NC(=O)[C@H](CO)NC(=O)[C@@H](NC(=O)[C@H](Cc1ccccc1)NC(=O)[C@@H](NC(=O)CNC(=O)[C@H](Cc1c[nH]cn1)NC(=O)C(C)(C)NC(=O)[C@@H](N)Cc1c[nH]cn1)[C@@H](C)O)[C@@H](C)O)C(=O)N[C@@H](CCC(=O)O)C(=O)N[C@@H](CO)C(=O)N[C@@H](CCCNC(=N)N)C(=O)N[C@@H](CCCNC(=N)N)C(=O)N[C@@H](C)C(=O)N[C@@H](CCCNC(=N)N)C(=O)N[C@@H](CCC(=O)O)C(=O)N[C@@H](Cc1ccccc1)C(=O)N[C@H](C(=O)N[C@@H](CCC(N)=O)C(=O)N[C@@H](Cc1c[nH]c2ccccc12)C(=O)N[C@@H](CC(C)C)C(=O)N[C@@H](CC(C)C)C(=O)N[C@@H](CCCCNC(=O)CC[C@H](NC(=O)COCCOCCNC(=O)COCCOCCNC(=O)CC[C@H](NC(=O)CC[C@H](NC(=O)CCCCCCCCCCCCCCCCC(=O)O)C(=O)O)C(=O)O)C(=O)O)C(=O)N[C@H](C(N)=O)[C@@H](C)O)C(C)C)	0.0357	0.0048	1.4
H[Aib]HGTFTSDLSKYLESRRAREFVQWLLK([γGlu-γGlu-AEEA-AEEA-γGlu-C18 diacid])T-NH2 (N-terminus assumed; SMILES CC(C)C[C@H](NC(=O)[C@H](Cc1ccc(O)cc1)NC(=O)[C@H](CCCCN)NC(=O)[C@H](CO)NC(=O)[C@H](CC(C)C)NC(=O)[C@H](CC(=O)O)NC(=O)[C@H](CO)NC(=O)[C@@H](NC(=O)[C@H](Cc1ccccc1)NC(=O)[C@@H](NC(=O)CNC(=O)[C@H](Cc1c[nH]cn1)NC(=O)C(C)(C)NC(=O)[C@@H](N)Cc1c[nH]cn1)[C@@H](C)O)[C@@H](C)O)C(=O)N[C@@H](CCC(=O)O)C(=O)N[C@@H](CO)C(=O)N[C@@H](CCCNC(=N)N)C(=O)N[C@@H](CCCNC(=N)N)C(=O)N[C@@H](C)C(=O)N[C@@H](CCCNC(=N)N)C(=O)N[C@@H](CCC(=O)O)C(=O)N[C@@H](Cc1ccccc1)C(=O)N[C@H](C(=O)N[C@@H](CCC(N)=O)C(=O)N[C@@H](Cc1c[nH]c2ccccc12)C(=O)N[C@@H](CC(C)C)C(=O)N[C@@H](CC(C)C)C(=O)N[C@@H](CCCCNC(=O)CC[C@H](NC(=O)CC[C@H](NC(=O)COCCOCCNC(=O)COCCOCCNC(=O)CC[C@H](NC(=O)CCCCCCCCCCCCCCCCC(=O)O)C(=O)O)C(=O)O)C(=O)O)C(=O)N[C@H](C(N)=O)[C@@H](C)O)C(C)C)	0.0146	0.0036	0.6
H[Aib]QGTFTSDLSKYLDLRRAQDFVQWLLK([γGlu-γGlu-Ser-Glu-Ser-γGlu-γGlu-C18 diacid])T-NH2	0.011	0.007	1.9
H[Aib]QGTFTSDLSKYLESKRAREFVQWLLK([γGlu-γGlu-Ser-Glu-Ser-γGlu-γGlu-C18 diacid])T-NH2	0.004		0.2
